Drawing on paper PMC10287905, “Proper RPA acetylation promotes accurate DNA replication and repair” (Nucleic Acids Research, 2023), this text covers Kd for 1 molecule.

Assay in all cases: MST; RED-tris-NTA labelled 6xHis-Rtt105 at constant 100 nM, serial dilutions of RPA complex from 200 to 0.0058 nM; 1x PBS with 0.05% Tween 20; 50 min at room temperature; Monolith NT.115
Details in all cases: both partners purified

Assay [1] addresses T1, WT RPA complex (yeast, UniProt P22336 1-621; P26754 1-273; P26755 1-122).
T1 construct: Rfa1, largest subunit of yeast RPA; Rfa2, subunit of yeast RPA; Rfa3, subunit of yeast RPA; the MST methods say only 'RPA complex'; source: purified from yeast cells; copies: + +

Assay [2] has as its target T2, 4KQ RPA complex (yeast, UniProt P22336 1-621; P26754 1-273; P26755 1-122, K259Q | K427Q | K463Q | K494Q).
T2 construct: Rfa1, largest subunit of yeast RPA, four lysines mutated to glutamine; Rfa2, subunit of yeast RPA; Rfa3, subunit of yeast RPA; also called 4KQ mutant RPA; source: purified from yeast cells; copies: + +

Assay [3] addresses T3, 4KR RPA complex (yeast, UniProt P22336 1-621; P26754 1-273; P26755 1-122, K259R | K427R | K463R | K494R).
T3 construct: Rfa1, largest subunit of yeast RPA, four lysines mutated to arginine; Rfa2, subunit of yeast RPA; Rfa3, subunit of yeast RPA; also called 4KR mutant RPA; source: purified from yeast cells; copies: + +

T3 sequence (P22336 whole entry K259R/K427R/K463R/K494R, chain 1 of 3): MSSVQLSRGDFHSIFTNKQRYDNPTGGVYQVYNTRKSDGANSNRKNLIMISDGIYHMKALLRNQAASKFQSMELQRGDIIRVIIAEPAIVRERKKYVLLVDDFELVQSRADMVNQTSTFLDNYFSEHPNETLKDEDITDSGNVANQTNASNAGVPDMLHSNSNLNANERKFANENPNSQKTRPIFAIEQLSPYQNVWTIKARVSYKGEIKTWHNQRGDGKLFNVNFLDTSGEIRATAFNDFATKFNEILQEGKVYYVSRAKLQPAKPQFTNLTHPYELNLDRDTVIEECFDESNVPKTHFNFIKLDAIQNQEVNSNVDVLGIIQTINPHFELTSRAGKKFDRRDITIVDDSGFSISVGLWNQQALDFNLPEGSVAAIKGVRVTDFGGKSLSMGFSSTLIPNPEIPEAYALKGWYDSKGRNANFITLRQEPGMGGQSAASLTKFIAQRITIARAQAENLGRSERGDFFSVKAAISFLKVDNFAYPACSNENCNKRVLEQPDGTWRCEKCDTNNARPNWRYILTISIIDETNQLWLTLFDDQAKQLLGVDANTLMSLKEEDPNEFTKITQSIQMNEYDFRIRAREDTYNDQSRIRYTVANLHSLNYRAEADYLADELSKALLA
T3 sequence (P26754 whole entry, chain 2 of 3): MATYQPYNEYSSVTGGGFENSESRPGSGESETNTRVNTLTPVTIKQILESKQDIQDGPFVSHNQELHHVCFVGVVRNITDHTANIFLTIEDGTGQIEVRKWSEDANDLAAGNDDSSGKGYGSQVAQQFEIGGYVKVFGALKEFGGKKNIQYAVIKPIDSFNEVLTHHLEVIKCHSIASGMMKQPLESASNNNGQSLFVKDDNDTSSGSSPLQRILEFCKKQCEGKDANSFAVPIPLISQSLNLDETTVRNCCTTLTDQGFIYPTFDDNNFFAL
T3 sequence (P26755 whole entry, chain 3 of 3): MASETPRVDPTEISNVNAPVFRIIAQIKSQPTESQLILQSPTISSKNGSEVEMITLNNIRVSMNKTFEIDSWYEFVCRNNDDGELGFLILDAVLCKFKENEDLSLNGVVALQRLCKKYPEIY
T1 sequence (P22336 whole entry, chain 1 of 3): as the sequence (P22336 whole entry K259R/K427R/K463R/K494R, chain 1 of 3) above, with R259K, R427K, R463K, R494K counted along it
T1 sequence (P26754 whole entry, chain 2 of 3): as the sequence (P26754 whole entry, chain 2 of 3) above
T1 sequence (P26755 whole entry, chain 3 of 3): as the sequence (P26755 whole entry, chain 3 of 3) above
T2 sequence (P22336 whole entry K259Q/K427Q/K463Q/K494Q, chain 1 of 3): as the sequence (P22336 whole entry K259R/K427R/K463R/K494R, chain 1 of 3) above, with R259Q, R427Q, R463Q, R494Q counted along it
T2 sequence (P26754 whole entry, chain 2 of 3): as the sequence (P26754 whole entry, chain 2 of 3) above
T2 sequence (P26755 whole entry, chain 3 of 3): as the sequence (P26755 whole entry, chain 3 of 3) above

B1: 6xHis-Rtt105 (natural protein, yeast, UniProt P40063 1-208, looked up)
chain: MYSNHNLNSDDCCFDWNEEKAAELQRTGVSFDRSLTPQSLRTSTRRLSEENKQQSGTMHIDTSPSVVSDIISSRRDRSQDFFGPHSSSPIAPSERQRADQRSRLESMRLTRRRDKMTKVRGGLEKMEEMIMQGEHLREMQRLKQEAQKNALPSDMAEYMEWQNNEDLEDDELLAFIEKQETYKNELEHFLNNANKNVYENNSYPNSHT
modifications: labelled with a RED-tris-NTA protein labelling kit
notes: Rtt105, yeast RPA chaperone protein
As for B1, the Kd – broadly, the constant that tells how readily two partners part at equilibrium – in assay [1] was approximately 1.06 nM; in assay [2], approximately 0.51 nM; in assay [3], approximately 1.17 nM.
